Data as given in paper PMC4682845 (2015).

Molecular target: […]-para-nitroanilide (TQ6-pNA) peptide substrate
Experiment: ITC

B1: MERS-CoV main protease (M^pro), wild type, authentic N-terminus (enzyme)
chain: SGLVKMSHPSGDVEACMVQVTCGSMTLNGLWLDNTVWCPRHVMCPADQLSDPNYDALLISMTNHSFSVQKHIGAPANLRVVGHAMQGTLLKLTVDVANPSTPAYTFTTVKPGAAFSVLACYNGRPTGTFTVVMRPNYTIKGSFLCGSCGSVGYTKEGSVINFCYMHQMELANGTHTGSAFDGTMYGAFMDKQVHQVQLTDKYCSVNVVAWLYAAILNGCAWFVKPNRTSVVSFNEWALANQFTEFVGTQSVDMLAVKTGVAIEQLLYAIQQLYTGFQGKQILGSTMLEDEFTPEDVNMQIMGVVMQ
With B1 as the binder, how does the Kd read?
The Kd was 20.3 µM.
